From the supplement of paper PMC10567573 come the findings set out here.

This data set in a line: protein stability index of a GFP-peptide fusion (GPS, HEK-293T) (PSI 1-6); higher = more stable. The following applies: c terminus: a fixed tail appended.

± gives the standard deviation.
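Also: 24-mer peptide tiles fused after GFP, lentivirally expressed, FACS-sorted into six equal bins by GFP/DsRed ratio, decoded by Illumina sequencing, PSI is the read-weighted mean bin number.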

MVSALRGAPLIRVHSSPVSSPSVS [SPACA3]: the protein stability index is, setting by setting: (treatment: DMSO) 2.85 ± 0.39; (treatment: MLN4924 1 uM, 8 h) 3.08 ± 0.3.

As to KKTVHYYAELGQCSVFPATDAPEQ [PLK2], the protein stability index runs as follows: (treatment: DMSO) 3.6 ± 0.27; (treatment: MLN4924 1 uM, 8 h) 3.64 ± 0.31.

ELLTLVNRKVSQRRVDFCKDPSAI [CASP6] displayed a protein stability index (treatment: DMSO) of 2.22 ± 0.36 and a protein stability index (treatment: MLN4924 1 uM, 8 h) of 2.24 ± 0.14.

With TDIKDESCCMTEEIFGPVTCVVPF [ALDH8A1], the protein stability index is, setting by setting: (treatment: DMSO) 3.53 ± 0.23; (treatment: MLN4924 1 uM, 8 h) 3.48 ± 0.3.

In the case of ALRQSVEADINGLRRVLDELTLSK [KRT13], the protein stability index reads like this: (treatment: DMSO) 3.08 ± 0.2; (treatment: MLN4924 1 uM, 8 h) 3.09 ± 0.26.

With CHSHTVVQDYSYFFFLRMDENYNL [CCDC3], the protein stability index is, setting by setting: (treatment: DMSO) 2.49 ± 0.68; (treatment: MLN4924 1 uM, 8 h) 2.4 ± 0.63.

On to VYSLQDFDTLATVGTGTFGRVHLV [PRKX], for which the protein stability index runs as follows: (treatment: DMSO) 2.42 ± 0.079; (treatment: MLN4924 1 uM, 8 h) 2.42 ± 0.37.

With LRGGGQVLLGWTLHYFPFFLMGRV [POMT2], the protein stability index runs as follows: (treatment: DMSO) 3.01 ± 0.44; (treatment: MLN4924 1 uM, 8 h) 2.99 ± 0.37.

Regarding STELQASQILQNKKHKNSQLDKNS [FAM98B], the protein stability index reads like this: (treatment: DMSO) 4.91 ± 0.38; (treatment: MLN4924 1 uM, 8 h) 5.06 ± 0.45.

In the case of DDYPSRGYSDRDGYGRDRDYSDHP [RBMX], the protein stability index by setting is: (treatment: DMSO) 4.85 ± 0.3; (treatment: MLN4924 1 uM, 8 h) 4.87 ± 0.22.

Consider GNEKITMQNLNDRLASYLDKVRAL [KRT15], for which the protein stability index was 2.6 ± 0.73 (treatment: DMSO) and 2.78 ± 0.5 (treatment: MLN4924 1 uM, 8 h).

For PFNKVQSARFWIPGEPNNAGNNEH [CD207], the protein stability index is, setting by setting: (treatment: DMSO) 3.92 ± 0.35; (treatment: MLN4924 1 uM, 8 h) 3.93 ± 0.17.

Consider SGMGGRAPVSRGRDSYGGPPRREP [RBMX], for which the protein stability index was 4.45 ± 0.28 (treatment: DMSO) and 4.61 ± 0.29 (treatment: MLN4924 1 uM, 8 h).

Consider VQIKTWFQNRRMKHKRQMQDPQLH [VENTX], for which the protein stability index is, setting by setting: (treatment: DMSO) 2.55 ± 0.4; (treatment: MLN4924 1 uM, 8 h) 2.52 ± 0.34.

Take YVHWPYCEKRCSYCNFNKYIPRRL [RSAD1]: the protein stability index (treatment: DMSO) was determined as 2.62 ± 0.51 and the protein stability index (treatment: MLN4924 1 uM, 8 h) was 2.45 ± 0.34.

For YMVQDQHECILPFVQVKGNFARLQ [M1AP], the protein stability index by setting is: (treatment: DMSO) 2.56 ± 0.37; (treatment: MLN4924 1 uM, 8 h) 2.55 ± 0.42.

For TASGDCYTFGSNQHGQLGTNTRRG [NEK8], the protein stability index reads like this: (treatment: DMSO) 4.56 ± 0.14; (treatment: MLN4924 1 uM, 8 h) 4.67 ± 0.15.

With NIPQMADTLFERATNSSWVVVFKA [SNAP91], the protein stability index was 2.27 ± 0.65 (treatment: DMSO) and 2.3 ± 0.82 (treatment: MLN4924 1 uM, 8 h).

In the case of ESLEDVAMYISQEEWGHQDPSKRA [ZNF263], the protein stability index stood at 4.99 ± 0.069 (treatment: DMSO) and 5.03 ± 0.26 (treatment: MLN4924 1 uM, 8 h).

For LCKEMVPLAEQTPLTLQSQPKEPQ [ZSCAN9], the protein stability index worked out at 5 ± 0.13 (treatment: DMSO) and 5.04 ± 0.24 (treatment: MLN4924 1 uM, 8 h).

For the sequence DTTRVENLIKSENYGKILVEKNEH [R3HDM1], the protein stability index reads like this: (treatment: DMSO) 4.46 ± 0.089; (treatment: MLN4924 1 uM, 8 h) 4.4 ± 0.1.

Consider PVYLLLELEDKDGLQSAQPTEGQG [MYBL2], for which the protein stability index is 3.88 ± 0.23 (treatment: DMSO) and 3.79 ± 0.058 (treatment: MLN4924 1 uM, 8 h).

As to GQRFYSRVLSPLHRGPSGHTEASA, the protein stability index runs as follows: (treatment: DMSO) 3.74 ± 0.045; (treatment: MLN4924 1 uM, 8 h) 3.79 ± 0.29.

For the sequence FDDGDDIMATLGFGDSPKAEKRQI [FBF1], the protein stability index is 3.97 ± 0.24 (treatment: DMSO) and 4.32 ± 0.19 (treatment: MLN4924 1 uM, 8 h).

For the sequence LTFLTKQEILLAHRRFCELLPQEQ [CIB1], the protein stability index runs as follows: (treatment: DMSO) 2.4 ± 0.44; (treatment: MLN4924 1 uM, 8 h) 2.55 ± 0.19.

For IHGFPWWPARVLDISLGQKEDGEP [PWWP2B], the protein stability index is 3.05 ± 0.18 (treatment: DMSO) and 3.54 ± 0.4 (treatment: MLN4924 1 uM, 8 h).

With STCHAYSNTRDRYGRSWESYSSCG [RBMY1A1], the protein stability index is, setting by setting: (treatment: DMSO) 2.29 ± 0.16; (treatment: MLN4924 1 uM, 8 h) 2.47 ± 0.37.

As for EEFIATIRAAKGLDQALKEGGKLP [ZC2HC1A], the protein stability index came to 3.98 ± 0.22 (treatment: DMSO) and 3.93 ± 0.16 (treatment: MLN4924 1 uM, 8 h).

Consider AEDDHMLIQNEYRNGGSLADAISE [WEE1], for which the protein stability index was found to be 5.06 ± 0.27 (treatment: DMSO) and 4.9 ± 0.43 (treatment: MLN4924 1 uM, 8 h).

Turning to AMYISQEEWGHQDPSKRALSRDTV [ZNF263], the protein stability index is, setting by setting: (treatment: DMSO) 3.81 ± 0.12; (treatment: MLN4924 1 uM, 8 h) 4.06 ± 0.14.

DCLLCFPETLPESSLFSVEANSSN [C8orf76] yielded a protein stability index (treatment: DMSO) of 3.58 ± 0.29 and a protein stability index (treatment: MLN4924 1 uM, 8 h) of 3.58 ± 0.6.

Sequence QEMVQRPQPHRNRAGLDLPTIDTG [TRAF3IP2] yielded a protein stability index (treatment: DMSO) of 4.5 ± 0.26 and a protein stability index (treatment: MLN4924 1 uM, 8 h) of 4.59 ± 0.19.

LQAIKAAIMLLPDENREVLQTLLY [DLC1] came in with a protein stability index (treatment: DMSO) of 2.23 ± 0.42 and a protein stability index (treatment: MLN4924 1 uM, 8 h) of 2.22 ± 0.16.

The sequence PGTSFKDSTKTAFHRSQTLSYRNG [EFHC1] gave a protein stability index (treatment: DMSO) of 3.68 ± 0.1 and a protein stability index (treatment: MLN4924 1 uM, 8 h) of 3.89 ± 0.11.

Take ASDPLLSSVSPAVSKASSRRSSFS [TFE3]: the protein stability index (treatment: DMSO) was 4.69 ± 0.15 and the protein stability index (treatment: MLN4924 1 uM, 8 h) was determined as 4.79 ± 0.25.

Take RARRTEISKNSEKKMESEEDSNWE [GOLPH3L]: the protein stability index is 5.43 ± 0.49 (treatment: DMSO) and 5.35 ± 0.44 (treatment: MLN4924 1 uM, 8 h).
